The record followed here is patent US20230227568A1 (Pieris, published 2023).

One test has as its target T1, hu4-1BB-Fc (R&D Systems) (human, UniProt Q07011 24-186).
T1 construct: Bought; also called human 4-1BB; not shown: human IgG Fc of the bought fusion
Put plainly: SPR (Biacore 8K), hu4-1BB-Fc captured by anti-human IgG Fc; apparent value, 1:1 fit. As to the method:
The anti-human IgG Fc antibody (GE Healthcare) was immobilized on a CM5 sensor chip using standard amine chemistry: the carboxyl groups on the chip were activated using 1-ethyl-3-(3-dimethylaminopropyl)-carbodiimide (EDC) and N-hydroxysuccinimide (NHS). Subsequently, anti-human IgG Fc antibody solution (GE Healthcare) at a concentration of 25 μg/mL in 10 mM sodium acetate (pH 5.0) was applied at a flow rate of 5 μL/min until an immobilization level of 4000-10000 resonance units (RU) was achieved. Residual non-reacted NHS-esters were blocked by passing a solution of 1 M ethanolamine across the surface. The reference channel was treated in an analogous manner. Subsequently, hu4-1BB-Fc (R&D Systems) at 0.3 μg/mL was captured by the anti-human IgG-Fc antibody at the chip surface for 180 s at a flow rate of 10 μL/min.
The binding assay was carried out with a contact time of 180 s, a dissociation time of 1200 s or 3000 s and a flow rate of 30 μL/min. All measurements were performed at 25° C. Lipocalin mutein SEQ ID NO: 64 as included in the multimeric proteins was also tested as […]. […] Prior to the protein measurements, three startup cycles were performed for conditioning purposes. Data were evaluated with Biacore Evaluation software. Double referencing was used and the 1:1 binding model was used to fit the raw data.
(In general: Surface plasmon resonance follows binding to a sensor surface in real time, without labels.)

Test [1] has as its target T2, recombinant hu4-1BB-His (human 4-1BB with a C-terminal polyhistidine tag, R&D Systems) (human, UniProt Q07011 24-186).
T2 construct: Bought; not shown: C-terminal polyhistidine tag
In words: ELISA, hu4-1BB-His coated, detection anti-NGAL-HRP. The method, then:
Recombinant hu4-1BB-His (human 4-1BB with a C-terminal polyhistidine tag, R&D Systems) at the concentration of 1 μg/mL in PBS was coated overnight on microtiter plates at 4° C. After washing with PBS-0.05% T (PBS supplemented with 0.05% (v/v) Tween 20), the plates were blocked with 2% BSA (w/v) in PBS-0.1% T (PBS supplemented with 0.1% (v/v) Tween 20) for 1 h at room temperature. After washing with 100 μL PBS-0.05% T five times, exemplary multimeric proteins (SEQ ID NOs: 38-44 and 46-53) or 4-1BB-specific lipocalin mutein as included in the multimeric protein (SEQ ID NO: 64) at different concentrations, ranging from 100 to 0.002 nM, were added to the wells and incubated for 1 h at room temperature, followed by another wash step. Bound molecules under study were detected by incubation with 1:1000 diluted anti-NGAL-HRP in PBS-0.1% T-2% BSA. After an additional wash step, fluorogenic HRP substrate (QuantaBlu, Thermo) was added to each well and the fluorescence intensity was detected using a fluorescence microplate reader.
The results of exemplary experiments are depicted in FIG. 2, together with the fit curves resulting from a 1:1 binding sigmoidal fit, where the EC₅₀ value and the maximum signal were free parameters, and the slope was fixed to one. The observed EC₅₀ values toward the hu4-1BB of all tested multimeric proteins were in the sub nanomolar range.
(In general: ELISA stands for enzyme-linked immunosorbent assay.)

Test [2] has as its target T3, cynomolgus 4-1BB on CHO cells (cynomolgus, UniProt A9YYE7 24-254).
T3 construct: also called Flp-In-CHO::cyno4-1BB; cynomolgus 4-1BB-expressing CHO cells
In words: flow cytometry, Flp-In-CHO::cyno4-1BB cells. As to the method: (§1) CHO cells were stably transfected with human 4-1BB, cynomolgus 4-1BB, or a mock control using the Flp-In system (Life Technologies) according to the manufacturer's instructions. Transfected CHO cells were maintained in Ham's F12 medium (Life Technologies) supplemented with 10% Fetal Calf Serum (Biochrom) and 500 μg/ml Hygromycin B (Roth). Cells were cultured in cell culture flasks according to manufacturer's instruction (37° C., 5% CO₂ atmosphere).
(§2) 5×10⁴ cells per well were incubated for 1 h in ice-cold PBS containing 5% fetal calf serum (PBS-FCS). A dilution series of the tested multimeric proteins (SEQ ID NOs: 38-44 and 46-55), the 4-1BB-targeting lipocalin mutein as included in the multimeric proteins (SEQ ID NO: 64) or the GPC3-targeting lipocalin SEQ ID NO: 90 were added to the cells and incubated for 1 h on ice. Cells were washed twice with PBS and then incubated with a rabbit anti-NGAL or a goat anti-human IgG labeled with fluorescent dye Alexa 488 for 30 min on ice. Human IgG4 isotype (SEQ ID NOs: 29 and 30) and lipocalin mutein SEQ ID NO: 8 were tested as a negative control. Cells were subsequently washed and analyzed using iQue Flow cytometer (Intellicyte Screener). Mean geometric fluorescent signals were plotted and fitted with Graphpad software using nonlinear regression (shared bottom, four parameters, variable slope).
For orientation: In flow cytometry, cells or beads pass a laser one at a time.

For test [3], the target named is T4, human 4-1BB on cells (human, UniProt Q07011 24-255).
T4 construct: whole, on cells; Stably transfected CHO cells (flow cytometry) and bought Jurkat reporter cells (bioassay); also called Flp-In-CHO::hu4-1BB; human 4-1BB-expressing CHO cells
T4 sequence (Q07011 24-255): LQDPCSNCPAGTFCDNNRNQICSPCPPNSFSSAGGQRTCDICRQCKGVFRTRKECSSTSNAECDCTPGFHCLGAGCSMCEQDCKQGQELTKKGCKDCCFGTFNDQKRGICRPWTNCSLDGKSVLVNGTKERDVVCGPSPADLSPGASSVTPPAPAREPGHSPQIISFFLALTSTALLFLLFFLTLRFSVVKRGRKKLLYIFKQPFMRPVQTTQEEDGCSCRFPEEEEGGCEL
Put plainly: flow cytometry, Flp-In-CHO::hu4-1BB cells. The method, then:
as §1, §2

The target of test [4] is T4, human 4-1BB on cells. In words: cell-based or functional assay.

The term koff denotes a measure of how fast the partners let go of each other. In general, kon refers to a measure of how fast the partners come together. By EC50 is commonly meant the concentration at which the effect is half-maximal.

T3 sequence (A9YYE7 entry or part of it limits assumed): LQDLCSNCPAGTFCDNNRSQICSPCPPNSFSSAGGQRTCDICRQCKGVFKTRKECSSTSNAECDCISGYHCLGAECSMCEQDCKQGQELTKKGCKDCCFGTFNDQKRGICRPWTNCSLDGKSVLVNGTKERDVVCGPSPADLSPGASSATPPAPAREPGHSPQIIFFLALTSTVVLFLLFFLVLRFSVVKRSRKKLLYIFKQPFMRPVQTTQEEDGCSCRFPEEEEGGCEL

B1: multimeric protein SEQ ID NO: 39 (designed binder)
chain: QDSTSDLIPAPPLSKVPLQQNFQDNQFHGKWYVVGQAGNIRLREDKDPIKMMATIYELKEDKSYDVTMVKFDDKKCMYDIWTFVPGSQPGEFTLGKIKSFPGHTSSLVRVVSTNYNQHAMVFFKFVFQNREEFYITLYGRTKELTSELKENFIRFSKSLGLPENHIVFPVPIDQCIDGGGGGSGVRLWATRQAMLGQVHEVPEGWLIFVAEQEELYVRVQNGFRKVQLEARTPLGGSGGAPEQKLISEEDLGSHHHHHHHHHH
For B1, in the test with hu4-1BB-Fc (R&D Systems), the Kd came out at 0.38 nM, the off-rate constant (koff) turned out to be 2.63e-05 s⁻¹ and the kon was found to be 68800 M⁻¹ s⁻¹. For the same molecule, the EC50 in test [1] turned out to be 0.24 nM. Moreover, the response in test [2] was half-maximal at 3.68 nM (EC50). This molecule also came in with a 50% effective concentration (EC50) with human 4-1BB on cells [3] of 5.87 nM.

B2: multimeric protein SEQ ID NO: 44 (designed binder)
chain: GVRLWATRQAMLGQVHEVPEGWLIFVAEQEELYVRVQNGFRKVQLEARTPLGGGGSQDSTSDLIPAPPLSKVPLQQNFQDNQFHGKWYVVGQAGNIRLREDKDPIKMMATIYELKEDKSYDVTMVKFDDKKCMYDIWTFVPGSQPGEFTLGKIKSFPGHTSSLVRVVSTNYNQHAMVFFKFVFQNREEFYITLYGRTKELTSELKENFIRFSKSLGLPENHIVFPVPIDQCIDGGGSGGAPEQKLISEEDLGSHHHHHHHHHH
Take B2: in the test with hu4-1BB-Fc (R&D Systems), the Kd worked out at 0.24 nM, the dissociation rate constant (koff) came to 2.07e-05 s⁻¹ and the association rate constant (kon) is 87500 M⁻¹ s⁻¹. The 50% effective concentration (EC50) in test [1] was determined as 0.22 nM. In test [2], this molecule came in with an EC50 of 5.03 nM. This molecule also returned a concentration giving a half-maximal response (EC50) in the test with human 4-1BB on cells [3] of 6.64 nM.

B3: multimeric protein SEQ ID NO: 48 (designed binder)
chain: QDSTSDLIPAPPLSKVPLQQNFQDNQFHGKWYVVGQAGNIRLREDKDPIKMMATIYELKEDKSYDVTMVKFDDKKCMYDIWTFVPGSQPGEFTLGKIKSFPGHTSSLVRVVSTNYNQHAMVFFKFVFQNREEFYITLYGRTKELTSELKENFIRFSKSLGLPENHIVFPVPIDQCIDGGGGGSGGGGSGGGGSGVRLWATRQAMLGQVHEVPEGWLIFVAEQEELYVRVQNGFRKVQLEARTPLGGGGSGGGGSGGGGSQDSTSDLIPAPPLSKVPLQQNFQDNQFHGKWYVVGQAGNIRLREDKDPIKMMATIYELKEDKSYDVTMVKFDDKKCMYDIWTFVPGSQPGEFTLGKIKSFPGHTSSLVRVVSTNYNQHAMVFFKFVFQNREEFYITLYGRTKELTSELKENFIRFSKSLGLPENHIVFPVPIDQCIDGGGSGGAPEQKLISEEDLGSHHHHHHHHHH
Consider B3, for which, in the test with human 4-1BB on cells [4], the “EC50 [nM], 4-1BB bioassay (NFκB-luc2/4-1BB Jurkat luminescence), with HepG2 cells” value is 0.82 nM. Besides, in the test with hu4-1BB-Fc (R&D Systems), the Kd worked out at 0.34 nM, the koff was determined as 2.76e-05 s⁻¹ and the association rate constant (kon) was 81600 M⁻¹ s⁻¹. Also, the concentration giving a half-maximal response (EC50) in test [1] is 0.1 nM. The molecule further registered a 50% effective concentration (EC50) in test [2] of 2.83 nM. Besides, in the test with human 4-1BB on cells [3], it took 2.98 nM to reach a half-maximal effect (EC50).

B4: multimeric protein SEQ ID NO: 41 (designed binder)
chain: QDSTSDLIPAPPLSKVPLQQNFQDNQFHGKWYVVGQAGNIRLREDKDPIKMMATIYELKEDKSYDVTMVKFDDKKCMYDIWTFVPGSQPGEFTLGKIKSFPGHTSSLVRVVSTNYNQHAMVFFKFVFQNREEFYITLYGRTKELTSELKENFIRFSKSLGLPENHIVFPVPIDQCIDGGSPTPTPTTPTPTPTGVRLWATRQAMLGQVHEVPEGWLIFVAEQEELYVRVQNGFRKVQLEARTPLGGSGGAPEQKLISEEDLGSHHHHHHHHHH
Regarding B4, in the test with hu4-1BB-Fc (R&D Systems), the Kd was determined as 0.31 nM, the off-rate constant (koff) is 2.07e-05 s⁻¹ and the on-rate constant (kon) is 66200 M⁻¹ s⁻¹. In test [1], the concentration giving a half-maximal response (EC50) is 0.19 nM. The response in test [2] was half-maximal at 5.63 nM (EC50). Also, a half-maximal response with human 4-1BB on cells [3] (EC50) required 7.37 nM.

B5: multimeric protein SEQ ID NO: 42 (designed binder)
chain: QDSTSDLIPAPPLSKVPLQQNFQDNQFHGKWYVVGQAGNIRLREDKDPIKMMATIYELKEDKSYDVTMVKFDDKKCMYDIWTFVPGSQPGEFTLGKIKSFPGHTSSLVRVVSTNYNQHAMVFFKFVFQNREEFYITLYGRTKELTSELKENFIRFSKSLGLPENHIVFPVPIDQCIDGAEAAAKEAAAKEAAAKAGVRLWATRQAMLGQVHEVPEGWLIFVAEQEELYVRVQNGFRKVQLEARTPLGGSGGAPEQKLISEEDLGSHHHHHHHHHH
As to B5, the Kd with hu4-1BB-Fc (R&D Systems) came out at 0.28 nM. For the same molecule, in the test with hu4-1BB-Fc (R&D Systems), the off-rate constant (koff) came to 1.74e-05 s⁻¹. Moreover, the kon with hu4-1BB-Fc (R&D Systems) amounted to 61300 M⁻¹ s⁻¹. The half-maximal effective concentration (EC50) is 0.26 nM in test [1], 6.59 nM in test [2] and 8.5 nM with human 4-1BB on cells [3].

B6: multimeric protein SEQ ID NO: 47 (designed binder)
chain: QDSTSDLIPAPPLSKVPLQQNFQDNQFHGKWYVVGQAGNIRLREDKDPIKMMATIYELKEDKSYDVTMVKFDDKKCMYDIWTFVPGSQPGEFTLGKIKSFPGHTSSLVRVVSTNYNQHAMVFFKFVFQNREEFYITLYGRTKELTSELKENFIRFSKSLGLPENHIVFPVPIDQCIDGGGGGSGGGGSGGGGSKPLDGEYFTLQIRGRERFEMFRELNEALELKDAQAGKEPGGSGGAPEQKLISEEDLGSHHHHHHHHHH
On to B6, for which, in the test with hu4-1BB-Fc (R&D Systems), the Kd was 0.66 nM, the off-rate (koff) is 6.52e-05 s⁻¹ and the on-rate (kon) came out at 98700 M⁻¹ s⁻¹. The concentration for a half-maximal effect (EC50) in test [1] was determined as 0.1 nM. Moreover, it took 3.81 nM to reach a half-maximal effect in test [2] (EC50). The concentration for a half-maximal effect (EC50) in the test with human 4-1BB on cells [3] came out at 3.81 nM.

B7: multimeric protein SEQ ID NO: 38 (designed binder)
chain: QDSTSDLIPAPPLSKVPLQQNFQDNQFHGKWYVVGQAGNIRLREDKDPIKMMATIYELKEDKSYDVTMVKFDDKKCMYDIWTFVPGSQPGEFTLGKIKSFPGHTSSLVRVVSTNYNQHAMVFFKFVFQNREEFYITLYGRTKELTSELKENFIRFSKSLGLPENHIVFPVPIDQCIDGGGGGSGGGGSGGGGSGVRLWATRQAMLGQVHEVPEGWLIFVAEQEELYVRVQNGFRKVQLEARTPLGGSGGAPEQKLISEEDLGSHHHHHHHHHH
notes: Trivalent; Self-assembled from its monomer polypeptides
Consider B7, for which the Kd with hu4-1BB-Fc (R&D Systems) stood at 0.25 nM. The dissociation rate constant (koff) with hu4-1BB-Fc (R&D Systems) was 2.22e-05 s⁻¹. Moreover, the kon in the test with hu4-1BB-Fc (R&D Systems) turned out to be 89200 M⁻¹ s⁻¹. Also, the concentration giving a half-maximal response (EC50) was 0.16 nM in test [1], 5.92 nM in test [2] and 4.89 nM with human 4-1BB on cells [3].

B8: multimeric protein SEQ ID NO: 43 (designed binder)
chain: GVRLWATRQAMLGQVHEVPEGWLIFVAEQEELYVRVQNGFRKVQLEARTPLGGGGSGGGGSGGGGSQDSTSDLIPAPPLSKVPLQQNFQDNQFHGKWYVVGQAGNIRLREDKDPIKMMATIYELKEDKSYDVTMVKFDDKKCMYDIWTFVPGSQPGEFTLGKIKSFPGHTSSLVRVVSTNYNQHAMVFFKFVFQNREEFYITLYGRTKELTSELKENFIRFSKSLGLPENHIVFPVPIDQCIDGGGSGGAPEQKLISEEDLGSHHHHHHHHHH
B8: in the test with hu4-1BB-Fc (R&D Systems), the Kd was 0.39 nM, the koff turned out to be 4.42e-05 s⁻¹ and the kon worked out at 114000 M⁻¹ s⁻¹. In addition, the EC50 in test [1] worked out at 0.16 nM.
